This is an account of results in patent US20020192785A1 (ONYX PHARMACEUTICALS, published 2002).

One assay addresses T1, EE-K-Ras (UniProt P01116-2 1-188).
T1 construct: Named EE-K-Ras only for the GDP dissociation assay; the result on physical association says 'K-Ras' and its format is not described; not shown: EE (glu-glu) tag
As to the kind of experiment: complex formation assay; format for K-Ras not described.

The next assay has as its target T2, GST-Cdc42Hs (UniProt P60953 1-191).
T2 construct: Baculovirus expressed; not shown: glutathione S-transferase (GST) fusion partner
The experiment in a line: pull-down on GSH agarose (nucleotide depleted or GDP state), anti glu-glu immunoblot. The method, then:
(§1) Comparison of p115 stimulated GDP and GTPγ`S dissociation from RhoA. Increasing amounts of glu-glu tagged •N-p115 (0, 0.02, 0.075, 0.02, 0.4, 1.0 μM) were incubated with 0.3 μM RhoA with bound [³H]-GDP or GTP`[³⁵S] for 10 minutes, and the amount of nucleotide remaining bound to RhoA was determined as described in Hart et al. (39). Specificity of •N-p115 stimulated GDP dissociation. Increasing amounts of •N-p115 (0, 0.25, 0.5, 1.0, 2.0 μM) were incubated for 5 minutes with 2.0 μM GST-RhoA, GST-Rac1, GST-Cdc42Hs or EE-K-Ras prebound with [³H]-GDP and analysed as described in A. Western analysis of complex formation. One μg of glu-glu tagged •N-p115 was incubated with 4 μg of the nucleotide depleted or GDP states of baculovirus expressed GST-Rho, GST-Rac or GST-Cdc42Hs coupled to GSH agarose as described in Hart et al. (18). Proteins, which were recovered on the washed GSH beads, were analsed by SDS-PAGE and immunoblotting. The blot was probed with an affinity purified anti glu-glu monoclonal antibody. 100 ngs of glu-glu tagged •N-p115 was used as a positive control. Kinetic analysis of p115-catalyzed GEF activity on RhoA. […] The level of GTP incorporated onto Rho/min/pmol of •N-p115 was measured as GST-RhoA[`³²P]GTP bound to nitrocellulose filters.

In a further assay the target is GST-Rac1 (UniProt P63000 1-192). Described as above. The method, then:
as §1

Assay [1] deals with RhoA with bound [3H]-GDP or GTPγ[35S] (UniProt P61586 1-193, limits assumed). As to the kind of experiment: cell-based or functional assay.
Chain of RhoA with bound [3H]-GDP or GTPγ[35S] (P61586 whole entry): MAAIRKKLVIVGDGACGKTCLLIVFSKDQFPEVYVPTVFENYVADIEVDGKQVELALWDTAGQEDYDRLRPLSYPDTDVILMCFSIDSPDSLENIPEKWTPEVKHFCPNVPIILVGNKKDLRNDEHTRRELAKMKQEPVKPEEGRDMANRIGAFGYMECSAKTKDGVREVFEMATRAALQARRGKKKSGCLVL

T2 sequence (P60953 whole entry, the tested form may be a part): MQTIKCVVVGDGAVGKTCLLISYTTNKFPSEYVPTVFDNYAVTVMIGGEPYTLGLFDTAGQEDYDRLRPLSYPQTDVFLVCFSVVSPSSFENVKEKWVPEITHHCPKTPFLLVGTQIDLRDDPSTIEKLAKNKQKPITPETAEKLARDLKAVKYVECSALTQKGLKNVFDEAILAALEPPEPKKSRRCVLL

B1: glu-glu tagged •N-p115 (amino acids 249-912 of human p115 Rho-GEF) (other, not shown: small tags and cut ends)
chain: VMGNRRSDDPPKTKKGLSSILDAARWNRGEPQVPDFRHLKAEVDAEKPGATDRKGGVGMPSRDRNIGAPGQDTPGVSLHPLSLDSPDREPGADAPLELGDSSPQGPMSLESLAPPESTDEGAETESPEPGDEGEPGRSGLELEPEEPPGWRELVPPDTLHSLPKSQVKRQEVISELLVTEAAHVRMLRVLHDLFFQPMAECLFFPLEELQNIFPSLDELIEVHSLFLDRLMKRRQESGYLIEEIGDVLLARFDGAEGSWFQKISSRFCSRQSFALEQLKAKQRKDPRFCAFVQEAESRPRCRRLQLKDMIPTEMQRLTKYPLLLQSIGQNTEEPTEREKVELAAECCREILHHVNQAVRDMEDLLRLKDYQRRLDLSHLRQSSDPMLSEFKNLDITKKKLVHEGPLTWRVTKDKAVEVHVLLLDDLLLLLQRQDERLLLKSHSRTLTPTPDGKTMLRPVLRLTSAMTREVATDHKAFYVLFTWDQEAQIYELVAQTVSERKNWCALITETAGSLKVPAPASRPKPRPRPSSTREPLLSSSENGNGGRETSPADARTERILSDLLPFCRPGPEGQLAATALRKVLSLKQLLFPAEEDNGAGPPRDGDGVPGGGPLSPARTQEIQENLLSLEETMKQLEELEEEFCRLRPLLSQLGGNSVPQPGCT
notes: Expressed in the baculovirus/Sf9 system and purified on anti-glu-glu Sepharose; also called N-terminal truncated version of p115
As for B1, the binding result in the assay with EE-K-Ras, with GST-Cdc42Hs and with GST-Rac1 was “no binding” each time. Also, in assay [1], the “stimulation of the intrinsic dissociation of GDP from RhoA” value is 10 fold.
